Laboratory results: paper PMC7205312
Changes are numbered by the printed parent chain. Names and notes keep the numbering of the source. Each block holds one binder with its values, some of them ahead of it.

What was measured:
Test in all cases: co-IP (IP anti-Myc beads, IB anti-HA), band intensity by ImageJ
Conditions in all cases: chain shown with the change; NB-ARC-HA co-expressed with NB-ARC-Myc; parent: 1.00
[1] = molecular target: T1, Tm-2^2 NB-ARC (D481V, L233A), Q71BG9
T1 chain: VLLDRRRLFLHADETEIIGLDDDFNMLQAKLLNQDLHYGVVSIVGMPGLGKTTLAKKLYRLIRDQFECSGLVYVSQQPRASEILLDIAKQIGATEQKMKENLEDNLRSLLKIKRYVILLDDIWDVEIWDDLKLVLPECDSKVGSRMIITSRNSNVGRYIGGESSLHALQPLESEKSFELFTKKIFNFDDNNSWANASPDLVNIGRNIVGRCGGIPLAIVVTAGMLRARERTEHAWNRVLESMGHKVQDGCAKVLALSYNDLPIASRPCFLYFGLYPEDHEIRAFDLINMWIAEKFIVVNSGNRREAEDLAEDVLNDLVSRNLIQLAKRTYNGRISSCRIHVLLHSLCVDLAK

[2] = molecular target: T2, Tm-2^2 NB-ARC (D481V, L246A), Q71BG9
T2 chain: T1 chain with A93L, L106A

[3] = molecular target: T3, Tm-2^2 NB-ARC (D481V, L242A), Q71BG9
T3 chain: T1 chain with A93L, L102A

ratio to parent [1]: 0.64
B1: Tm-2^2 NB-ARC (D481V), Q71BG9 L233A; D481V (protein)
chain: T1 chain

ratio to parent [2]: 0.45
B2: Tm-2^2 NB-ARC (D481V), Q71BG9 L246A; D481V (protein)
chain: T1 chain with A93L, L106A

ratio to parent [3]: 0.62
B3: Tm-2^2 NB-ARC (D481V), Q71BG9 L242A; D481V (protein)
chain: T1 chain with A93L, L102A
